{"source": "paper PMC9221429", "origin": "cited, not measured here", "key": {"[1]": {"molecular_target": "B-Raf V600E (Homo sapiens) (UniProt P15056)", "sequence (P15056 2-766 V600E)": "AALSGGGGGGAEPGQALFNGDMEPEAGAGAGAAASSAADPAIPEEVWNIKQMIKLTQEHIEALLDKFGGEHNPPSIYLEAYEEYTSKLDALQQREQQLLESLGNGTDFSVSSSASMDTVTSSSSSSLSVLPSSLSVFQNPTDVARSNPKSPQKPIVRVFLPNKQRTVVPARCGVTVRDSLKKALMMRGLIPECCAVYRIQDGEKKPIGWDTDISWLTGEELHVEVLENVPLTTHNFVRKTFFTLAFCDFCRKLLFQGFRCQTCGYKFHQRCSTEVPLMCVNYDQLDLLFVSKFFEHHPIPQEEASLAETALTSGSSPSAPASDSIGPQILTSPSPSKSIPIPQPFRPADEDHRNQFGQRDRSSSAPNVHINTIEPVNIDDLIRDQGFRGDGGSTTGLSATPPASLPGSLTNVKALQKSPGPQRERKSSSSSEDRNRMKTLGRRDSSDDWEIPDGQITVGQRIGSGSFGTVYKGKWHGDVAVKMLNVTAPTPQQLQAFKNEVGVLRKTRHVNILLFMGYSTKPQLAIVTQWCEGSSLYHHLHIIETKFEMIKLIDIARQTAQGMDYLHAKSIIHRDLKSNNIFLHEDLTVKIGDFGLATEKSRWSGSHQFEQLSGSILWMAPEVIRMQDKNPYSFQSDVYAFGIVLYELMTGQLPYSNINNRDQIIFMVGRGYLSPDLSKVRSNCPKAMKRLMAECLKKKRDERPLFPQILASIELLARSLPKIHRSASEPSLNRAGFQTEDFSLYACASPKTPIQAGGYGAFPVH"}, "[2]": {"molecular_target": "B-Raf (Homo sapiens) (UniProt P15056)", "sequence (P15056 2-766)": "as the sequence (P15056 2-766 V600E) above, with E599V counted along it"}}, "data": [{"substance": "Cdc37 (from UniProt Q16543)", "values": [{"measurement": "Kd", "setting": "[1]", "value": 400, "unit": "nM"}, {"measurement": "Kd", "setting": "[2]", "value": 1000, "unit": "nM"}]}]}
